# Results from article PMC4354037.
# Target: T1, BSU Pol I (BSU polymerase) (Bacillus subtilis) (UniProt O34996)
# T1 sequence: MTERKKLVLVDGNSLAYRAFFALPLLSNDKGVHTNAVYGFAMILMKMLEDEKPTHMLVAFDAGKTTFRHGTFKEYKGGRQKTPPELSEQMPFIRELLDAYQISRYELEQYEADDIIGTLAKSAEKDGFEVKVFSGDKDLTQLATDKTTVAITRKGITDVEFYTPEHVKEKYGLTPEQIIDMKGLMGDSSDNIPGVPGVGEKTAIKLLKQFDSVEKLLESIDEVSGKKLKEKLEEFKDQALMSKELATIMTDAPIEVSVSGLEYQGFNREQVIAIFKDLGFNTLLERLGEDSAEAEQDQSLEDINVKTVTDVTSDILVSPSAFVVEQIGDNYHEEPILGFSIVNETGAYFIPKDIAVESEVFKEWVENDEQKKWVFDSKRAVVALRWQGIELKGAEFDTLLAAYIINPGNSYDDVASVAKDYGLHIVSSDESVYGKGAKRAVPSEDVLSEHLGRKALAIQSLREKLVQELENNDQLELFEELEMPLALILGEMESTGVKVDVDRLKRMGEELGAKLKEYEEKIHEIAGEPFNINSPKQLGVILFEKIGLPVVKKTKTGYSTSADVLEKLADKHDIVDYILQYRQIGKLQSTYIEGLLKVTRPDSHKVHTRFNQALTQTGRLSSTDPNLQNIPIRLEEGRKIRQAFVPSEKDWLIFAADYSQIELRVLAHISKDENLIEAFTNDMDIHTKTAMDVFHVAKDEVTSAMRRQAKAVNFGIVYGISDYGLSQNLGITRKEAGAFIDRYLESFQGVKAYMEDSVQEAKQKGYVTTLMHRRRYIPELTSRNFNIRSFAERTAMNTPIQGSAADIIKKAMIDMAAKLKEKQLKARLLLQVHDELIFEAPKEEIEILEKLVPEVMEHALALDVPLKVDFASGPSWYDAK
# Assay: stopped-flow fluorescence quenching
# Conditions: 375 mM NaCl, 10 mM MgSO4, fluorescein-modified thymidine in primer, five bases from the incorporation site, Stopped flow: 20 mM ACES pH 7.4, 62.5-325 mM NaCl (Methods; 375 mM in Results), 10 mM MgSO4, 1 uM acetylated BSA, 0.02% Tween-20, 1 mM TCEP, 600 nM enzyme …
sequence,measurement,setting,value
GCTTGCACAGGGCCTCGAC / CGTTAGTAAGGTCGAGGCCCTGTGCAAGC [stopped-flow primer/template duplex],binding signal (fold signal over mismatch),correct nucleotide dCTP 100 uM,3.5
same,binding signal (reference signal (correct is 3.5-fold)),mismatch nucleotide dATP,1
